# Experimental data as given in EP3916006A1.
# Legend:
# [1] = target: calcium sensing receptor (UniProt Q9QY96); experiment: cell-based or functional assay
# [2] = target: GPR93 (UniProt Q149R9); experiment: cell-based or functional assay
# Sequence of UniProt Q149R9 (Q149R9 whole entry): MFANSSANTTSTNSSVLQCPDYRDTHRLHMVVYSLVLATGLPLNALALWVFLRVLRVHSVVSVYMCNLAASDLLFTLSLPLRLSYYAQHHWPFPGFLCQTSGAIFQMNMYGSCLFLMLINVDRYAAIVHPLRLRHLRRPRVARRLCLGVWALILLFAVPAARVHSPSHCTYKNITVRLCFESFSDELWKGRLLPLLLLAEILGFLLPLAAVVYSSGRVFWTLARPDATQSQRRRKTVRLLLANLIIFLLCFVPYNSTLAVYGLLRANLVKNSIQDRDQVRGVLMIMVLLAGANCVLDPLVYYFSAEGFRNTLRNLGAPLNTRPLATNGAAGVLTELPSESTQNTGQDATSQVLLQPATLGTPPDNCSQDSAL
# Sequence of UniProt Q9QY96 (Q9QY96 20-1079 limits assumed): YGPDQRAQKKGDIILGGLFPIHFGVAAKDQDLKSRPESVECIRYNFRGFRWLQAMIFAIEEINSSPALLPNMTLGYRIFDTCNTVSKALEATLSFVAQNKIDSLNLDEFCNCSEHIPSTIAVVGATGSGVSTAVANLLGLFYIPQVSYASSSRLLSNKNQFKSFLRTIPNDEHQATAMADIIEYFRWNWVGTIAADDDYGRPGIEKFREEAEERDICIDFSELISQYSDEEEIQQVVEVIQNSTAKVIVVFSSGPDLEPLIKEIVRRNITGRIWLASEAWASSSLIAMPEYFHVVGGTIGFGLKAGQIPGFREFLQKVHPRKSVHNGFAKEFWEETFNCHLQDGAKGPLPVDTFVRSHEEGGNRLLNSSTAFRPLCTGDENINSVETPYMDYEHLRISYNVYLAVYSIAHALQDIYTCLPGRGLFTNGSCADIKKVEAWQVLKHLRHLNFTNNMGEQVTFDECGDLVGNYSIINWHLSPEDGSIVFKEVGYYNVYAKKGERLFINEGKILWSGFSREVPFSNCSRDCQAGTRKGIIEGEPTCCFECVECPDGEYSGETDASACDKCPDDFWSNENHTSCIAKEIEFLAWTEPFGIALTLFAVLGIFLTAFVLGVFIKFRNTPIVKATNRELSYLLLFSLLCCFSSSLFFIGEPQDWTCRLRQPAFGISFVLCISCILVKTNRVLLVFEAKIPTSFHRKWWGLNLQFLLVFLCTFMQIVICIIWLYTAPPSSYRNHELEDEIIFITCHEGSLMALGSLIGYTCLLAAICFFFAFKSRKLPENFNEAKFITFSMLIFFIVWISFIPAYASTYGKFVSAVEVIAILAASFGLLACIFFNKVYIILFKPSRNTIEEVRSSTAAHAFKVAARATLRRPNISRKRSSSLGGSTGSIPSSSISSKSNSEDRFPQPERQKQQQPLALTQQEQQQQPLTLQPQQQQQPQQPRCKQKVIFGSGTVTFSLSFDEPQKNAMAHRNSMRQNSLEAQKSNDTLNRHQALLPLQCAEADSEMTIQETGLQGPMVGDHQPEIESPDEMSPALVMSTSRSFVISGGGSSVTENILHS
substance,measurement,setting,value
"synthetic peptide SEQ ID NO: 5 90RYLGYLE96, derived from αs1-casein","CCK secretion by STC-1 cells (ELISA), peptide at 0.125 mM with NPS2143 at 6 µM (198 pM with vehicle)",[1],88 pM
same,"CCK secretion by STC-1 cells (ELISA), peptide at 0.125 mM with TC LPA5 4 at 4 µM (198 pM with vehicle)",[2],111 pM
